# From a protein production outcome set (Wang et al. 2014)
# Assay: label from the status in PepcDB records
# 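Further: failed if final PepcDB status was selected cloned or expressed and not failed if soluble or beyond.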
sequence,measurement,value
MYVTRRLSEYQKKPSELKLLPPEGPNSGIMVIQDEESQATCCFGSCYEGRLKGLPFPQNVKLNAAYTSGGGEHQTTHLTPVVFIPVLDQPLSSNLYYVLQRRGKHTGKASASATEEERVSSCFCFSYIPDAKPQEADPYDIYQQFEIHQRRSSSRYYSATSVASDGVPPNYLKRKDWWVSYSTSHDFGLRDDAKGINTKLRLDSELTSLGKSIEIGKWYVPFIFVMEGDVKDQMNKSTFYSVTLQQRWEEVFFCENIGNEHFEVVVDVDVETESVKLEGQETNLREDSGDGVVWFSVLRDEKDDKKIGLGSVVVERMKWEEERFGWLNEAGERSNIKRSERFEGGSSHWKSYRCYVLIESFELTRMDGSLVLTYEFRHVDKLKSKWD,protein production,failed
NDNSPRFEKSVYEADLAENSAPGTPILQLRAADLDVGVNGQIEYVFGAATESVRRLLRLDETSGWLSVLHRIDREEVNQLRFTVMARDRGQPPKTDKATVVLNIKDENDNVP,protein production,not failed
NENPDKPTDDVNYNMNEPRLASTLRGGLIIEGNVEQRLKPLQIDFYSQMTVDGGGWGTKNYIQDDEWNNLVWEEYLKQIASINIVIRSLTEKDKDAYANTIAFARIWRVYVHTLAADKFGPMPFPAYEIVEANPPYKSLKDIYDEYFRELDAAINGFNDSAQPIFSDAGIDLIYKNDVSKWKRFANSLRLRLAVRLTEVDQEKCIAEANAAISSPAGLISDKADNAYMPPKADGSWGQDYNYTMFQITWSGPICMSKSVEKLVTNIGGVAWPQGVVNQTSGVAVSSVHPEKVDPRAPKIFQPGIENGDWKGLVYGPKAEEANTGIYQSKQCAELGFIIKDGYPYKSRPYDLFLSEEVHFLKAELYARGFIAGDAKSEYEAGVRASFATWGVTSEVDDYLTSTEKNEAGTSARYDDQQGAGNTALEKIITQKYIAGIPDLAQEGWNDKRRLNLPRLDVAVYRDQAVYNNNDKDILKSANFIKRMRYPTKESLINATEYEKGKSMLGGKGDIVSTPLWWDKNSNYCTSSK,protein production,not failed
NGVWVIGEQREGKINPVTIELIGEGRKLADQLGKELAVVIAGYEVEKEVKELLHYSVDKVYYINDPLLKDFTTDGYAISIANLIERKKPEVVLVGATSIGRDIAPRIAGKVGTGLTADCTKLEIDSTDNKLLQTRPAFGGNLMATIVCPKNRPQMSTVRPGVMAKAVRNESETGILEVVTPELTEKMIRTRLVEILPQEKKSVN,protein production,not failed
NGYTMQRDNQKTLAVYMFEEINRDVEYLSGRLSEKELKDKYRYYGRGYVRITDKDGQVITYEDGSVQDKTVFLTNEGANKLGWKLEFLIDEKMFEEEILEKQN,protein production,not failed
NIVEWLGDRSLAVLAAIANKFRGSEQETLEPQLDEFVEDKVSTKHVEDDQQDDETLPHLTAYEVEEPKEKAAVHEYPIYMPQAKSETSAVKPTPEPQPQRVAAVNATPTYVEPEPQLKAVSTDNVDPMVERTKQLNVTIEELEAAAQQADDWASEEQTSQSYADTNAVYQEQVQAKHEEVVEHDTPQLESSYAEYAQFAAQQEQQLHVEPTPHEEPVIDTRALDDITDHAEPSEHIEPTISDFDVVDEEETYVAPQPQSRSPEPQPMVQPQSVSQIQPEQAPEPSVAFEPAPQEVEVEEVQDGDQDVAAFQSMVSSAQAKVAATQNPFLMKQEQNLPVPEEPLPTLELLYHPEKRENFIDREALEQVARLVESKLADYKIKADVVGIYPGPVITRFELDLAPGVKVSRISGLSMDLARALSAMAVRVVEVIPGKPYVGLELPNMSRQTVYLSDVISSPQFEQAKSPTTVVLGQDIAGEAVIADIAKMPHVLVAGTTGSGKSVGVNVMILSMLYKASPEDLRFIMIDPKMLELSIYEGIPHLLAEVVTDMKDASNALRWCVGEMERRYKLMSALGVRNVKGFNEKLKMAAEAGHPIHDPFWQEGDSMDTEPPLLEKLPYIVVVVDEFADLMMVVGKKVEELIARLAQKARAAGIHLILATQRPSVDVITGLIKANIPTRVAFTVSTKTDSRTILDQGGAESLLGMGDMLYLPPGSSHTIRVHGAFASDDDVHAVVNNWKARGKPNYIDEIISGDQGPESLLPGEQMESDEEMDPLFDQVVEHVVQSRRGSVSGVQRRFKIGYNRAARIVEQLEAQGIVSAPGHNGNREVLAPAPPKD,protein production,failed
NLKDVYVSIADYEGDEETAGFQEGVSMEVLERNPNGWWYCQILDGVKPFKGWVPSNYLEKKN,protein production,not failed
NPVILADLDDTLFQTRRKMVDELALAPYKTGALDRSLAPRSFMTQEQAMLVDWMLEHADLIPVTARGTEEMSRVTIPFHSWAITTHGAVVLTPEKVADEQWQHHITQSLTPYKQPLLRLQQSITQLMAERNIDGWARINYEYDDLPIYLVMKHNDSARLDELYAIGDEIEKIFSTKGFYIHRNSNNIAWLPEPIEKGKAVTYLLNKLKAERGVFPVIGFGDSLSDHRFMKLCN,protein production,not failed
NQLLGMHQIEKEMTQYFGIQRCIVVAGDSDIQKKVLSDFGDVLTNTLNLLLPNGENTIAVMGGTTMAMVAENMGSLETEKRHNLFVPARGGIGEAVSVQANSISAVMANKTGGNYRALYVPEQLSRETYNSLLQEPSIQEVLTLISHANCVVHSIGRALHMAARRKMSDDEMVMLKQKNAVAESFGYFFDEEGKVVYKIPRIGLQLKNLQEIPYVVAIAGGKTKAKAIRAYMKNAPKQTWLITDEAAANEILK,protein production,not failed
NQLLTQQANEDGLTKLFNRRYIDQKLDSMVAWHGRHHMPMAMILLDVDFFKPFNDNYGHIEGDRCLQAIANQLKATFCRSGEYVGRYGGEEFVVLLSSTDAQTAEREAERIQEAMYFLDYQHEFSSVANRVTVSQGVFVFQPTGKENQADLYATADRALYTSKSLGRNTYTMVNAS,protein production,not failed
NRDSLFNDPNAPVLGNPEGDVTVVEFFDYNCPYCRRAMAEVQGLVDADPNVRLVYREWPILGEGSDFAARAALAARQQGKYEAFHWALMGMSGKANETGVLRIAREVGLDTEQLQRDMEAPEVTAHIAQSMALAQKLGFNGTPSFVVEDALVPGFVEQSQLQDAVDRARKAA,protein production,not failed
NRLPDAVVTVYPTFNSLQMLAHALRMPYHDMRIVSLTGRPWHEFDRALIERAEKIGILTDHEHTPSAIAMRMLDYGYEDYTMSVGTRMGNPQEQCLDTFSLREAADRDFERPNCVILSATRPFVCSRAPLGLSESAFMPLNGRTKMITKMPFRLVSLSCLELHRASSFWDIGFCTGSVSIEAKLNFPHLHITAFEIRPEGAELMPVNSRRFGAPGIAYRIGDFMEEDISSLAPPDAVFIGGHGGRLVEMIAKVHSVMTKGGLLVFNSVSEESRHLFLTGIEACGMELLSSIRLTADGNNPIDILQARKKE,protein production,not failed
NSGKRLIQRSIERALDFRKEVQRLREESDGWFFDIWQPEAVDKAECWPVAPGEDWHGFKDADADHMYLDPVKVTILTPGMDEQGNMDEEGIPAALVAKFLDERGVVVEKTGPYNLLFLFSIGIDKTRAMGLLRGLTEFKRAYDLNLRVKNMLPDLYAEDPDFYRNMRIQDLAQGIHRLIRQHQ,protein production,failed
NTLRELRLFLRDVTKRLATDKRFNIFSKPVSDYLEVIKEPMDLSTVITKIDKHNYLTAKDFLKDIDLICSNALEYNPDKDPGDKIIRHRACTLKDTAHAIIAAELDPEFNKLCEEIKE,protein production,not failed
PATCPIVPGQEMIIEISKGRSGLGLSIVGGKDTPLNAIVIHEVYEEGAAARDGRLWAGDQILEVNGVDLRNSSHEEAITALRQTPQKVRLVVYRDEAHYRDEE,protein production,not failed
PCYDNTFANTCAECQQLIGHDSRELFYEDRHFHEGCFRCCRCQRSLADEPFTCQDSELLCNDCYCSAFS,protein production,not failed
PDQCKPPQVTCRSATCAQVNWEVPLSNGTDVTEYRLEWGGVEGSMQICYCGPGLSYEIKGLSPATTYYCRVQALSVVGAGPFSEVVACVTPPS,protein production,not failed
PEAMLIVDQNGQIVFSNSRCQQLFGYDAKAMLALQIETLLPEELRHLHTGERLDFLREGRDRPMASARHVRALKSDGGEFVAEIALSILPSDFD,protein production,failed
PEQLRSTVRIGTIDSIVQAWLPRFIERVRELYPGLTLDLNVDTSRGIAREIVERKIDLALLMGPVLEAGLRNVDLGSMDCAWVAAPGFGLGGRRIGLADLVDLPILTFSRNSDPHVWLMRQFEELRLPQPAISNSNSLSAML,protein production,failed
PFMDQSGGGVTFCGGEPLLHPEFLIDILKRCGQQGIHRAVDTTLLARKETVDEVMRNCELLLIDLKSMDSTVHQTFCDVPNELILKNIRRVAEADFPYYIRIPLIEGVNADEKNIKLSAEFLASLPRHPEIINLLPYHDIGKGKHAKLGSIYNPKGYKMQTPSEEVQQQCIQILTDYGLKATIGG,protein production,not failed
